Test: soluble fraction after stress (log2 fold change); higher = more stays soluble; pooled small domains, quantitative proteomics
Settings: stress: 50 degC
How it was run: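 The measure of aggregation propensity here is the base-two logarithm of the fold change in the soluble amount of each protein after stress. A higher value means more of that protein stays in solution. Stress was applied at 50°C to pooled libraries of small protein domains, read out by high-throughput quantitative proteomics.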

Row | Sequence | soluble fraction (log2)
1 | HMVTLPLLKRGHTGLPVKALQTLLVLRGMSVDVDGSFGEKTESAVRTFQTAAKILSDGEVGKDTWKALI | -1.43
2 | HMPRSLGADLRAIRKGRRLTLTDMAEALDRSVGWVSQVERDISTPSISDLRRMAEILDVPVSLLFG | -2.87
3 | HMTQTGEVIRWDAERGFGFIATADGRRHVFFHVRDFRGGAAPGVGLRVGFEEIQVGGKGPRAMDVRPL | -0.48
4 | HMPNILLSVKDASVAISVSSKMVRLLIASGRLKAVNLGKRMTRISLQELTDFAQRQGGNVVLP | -0.147
5 | HMKNNNIIFSEFLKEVENGRVVEVRIQGNNIQGIMSNGKEFTTYSPNYPNLIEKLTETGVSISAAPL | 0.0449
6 | HMASPTKQLVLEALRASGQPMSSMELSAQIGVSRATAQRYLSTLASAGEVKIQLRYGTTGRPEQEFLAIE | -0.868
7 | HMQKFLEATGENRDAAVENALEQLGLERDDVSVEVLEIGKKGFLGIGATPARVRVTYEAPDI | -0.0313
8 | HMPSRPIQVASFSKEDNAKRAAEALAKIGVTATPQKSEKAGKAVWGVVVTGDDAMLQKIKDAGFADAYFL | 0.0921
9 | HMGRLTTKIVLYDRIENIVPERRKELVADIEKRIGVKVEVLEIGHVDFVRDAAWLKVSYYLAPGE | -1.06
10 | HMDTYKGFIFEVVDKYFSPTLNQKIGQAKNKQGIVLLQTKPSFTQDPKVLIEELKLIIDRDNLKA | -0.145
11 | HMIDSDENERIKELIKALISETLKSRGVSPEVISDIKERVDRLHNEELPRFAAELKELISRN | 0.119
12 | HMVINVNEIIRRIKELKTFKTDRQVADFLGVSKATVSNWMARNSIDFPLLINKLDGVDLTWLLTGRGTPE | -1.16
13 | HMTESSTYFEKIGTEISQFKSIPKNIDVIIIEKLIYSGIIKKVDNEENSRVYYILTRKGRYFWKRYVLS | 0.0633
14 | HMALTAEVLRSLIKHHGLGQSIQRTAKAVGLSASTVKKYFDRIAAANLTWQEAKSRTQEELIASLQPT | -0.358
15 | HMDPLGALSDRERQVLALIGQGHGLQAIADQLGVSYKTAANTSSALKKKLGVDGINGLMKFALDSG | -0.505
16 | HMADVLLKHGSSGDYVWDLQYRLKTLSLFDQEMTGYFGPHTRQAVVNFQRKYGLPADGVVGPATWRALRK | -2.27
17 | HMFSWRQHLDHFGFSDEIKKRLADAVFLNDDWNEIDRGVLTKEELLARFIENDPGIEKEIYMVMENIN | -0.509
18 | HMNTSMIEHMDKSTFIRFVFTNPVTHDQAVAKLMEKHMWFSTEEKAEAEIDKLLNKTNSLIESGGKLTW | 0.0337
19 | HMPLKLIDVYLGRHGKKRYDVFKETGLSQQTLASANGKPAAALTGRILQAIGRTVGETPGRVLDEMLMIEQ | -0.691
20 | HMQLPTPEDLKKRRNELGLTQSDLAKRAGVSQPLIARIESGDVDPRLSTVRKILDAFEEVEKEQQ | 0.0795
21 | HMDFRQALNTSADSDANKVALLESIVKGKYVSSTVNLLRRVITLRRGRSIDATLAAYSHYVSIR | 0.313
22 | HMRPKAIFVDVDDTLVRSVGQTRIPMPAVIAHIRRLHDAGHQLYLWSSGGADYARASAEELGIGQYFQAFL | -0.26
23 | HMPSTVRVPDVAETSLSEAKKTIEESGLEVGAIHKVNNDTVKKNHVIKTSPTIGSAKKEGSAIDIYVSKG | -0.0128
24 | HMESKITTAEAAAILNASPQFVRVAMQRGILNIGIAMQMPNSNKWTYNISPKLLGEYSGKNIEYELERLR | -1.54
25 | HMRQISDPTALASMVDKVIEDNPSAVADYRRGESKALGFLIGRVMQSSGGKANPKMIRGLLVKNLES | -0.0922

Row | Sequence | soluble fraction (log2)
26 | HMALTARDLGLTHRQADVLHLVLQGKPVKLIARDLGLAEGTVKSHVSAVLRALNVTTRTQAIVAAGRLGLM | -1.92
27 | HMGITMFGQNLKKLRTSKNLSQSKLSKILGISSSTIGMYEQGRRFPDQTILTKIADFFDVSTDYLLGR | -0.268
28 | HMTVKKLIINEDNSGRRIDNYLLSIFNSVPRSKIYNIIRKGEVRVNSSRIKPSYRLEEGDQVRIPPNLDYT | -1.04
29 | HMSARRHAVKHLDANQLQTRVARMLSEFGLTAKVSKDPNSNALIIDGAPEAQRIAAQLITTIDKE | 0.091
30 | HMSPSRRENLTAAAKEYFVNTQIRHKTFGNGVIIKRSGNIAAIRFDNGTIKQIDLIAALQAKVLSIL | 0.168
31 | HMDFDFHALGREIKRKRKDKGWTQEYLAQLLDRTPRSIMYMENRGQHPSLNILFKIATLLEISIDQFFF | 0.194
32 | HMVEVVDAEKLEERLSKVFSAAVLLEIYNENPAHGKEYAYLFTARKNAVEEMIENGQMKRETWEAK | -0.963
33 | HMEIELHNLALNIKEFRKKNKLSQAELAEKLGVARTTIGYYERAEVEPNIYTLVQLSKLMNRSIDSLLGL | -1.3
34 | HMINLDYILELIFEKNNKTKDKTALIEEIRGVIRASVGNRAKESLIVDFINDTDLDTITDKASIIESFFEY | -3.51
35 | HMGIVAQLPTIRVNGKTLYYYDAQSGDNIYSIAEKLGVTVEDIRANNPGVADGVKPRMRLFFPTSLAK | 0.165
36 | HMDPYEYQLELEKLINNATELNKKYNYDPLKDKILAADAVKNSLETYVLQNYIVALENEIKQTLNQYQIL | -0.44
37 | HMSLGSQEYSIGFRNGDSTYHYIDKALKELAYEGVIDELSTQWFGSSRAVDFPSQKDALSELGYIA | -0.0308
38 | HMVRKIRARLVLQLRAEGLSGRAIAGSQGMSRKSVTAVLDAADRAGIGWDEIAERSEGEVYALLFPGRG | -1.34
39 | HMGVEALTPRQREVLALMAQGRSNGWIAAELGLSEKAIVQHTSNIYDMLGLAVDADDHRRVLAVIHYLT | -1.25
40 | HMQTRIDISDAVLQWVVRKTQFAALPPKAAAHLTKWVRGEKKPTFNQLEEVSKATGIPLGYFFLQQPPHE | -0.776
41 | HMTWIAEIELRLMGNGAVTGAKIVKSTDLKDVDAAIYRAALEASPYPAPESGIGGRFTIKLKY | 0.198
42 | HMIEMAGGYRKGDRVELHSLKGAAEHNGKQGTVVGPQGERVKVLLDDSDSKTLALKVTNLTKLESA | 0.112
43 | HMSFEITGDELILRFVKDKGGATTEQIRKHWEASNRGGKSDNNLTNLVKSGKLLRSKDPNGPGSLYTAS | -0.231
44 | HMTVMTGSQRRKKILELMRDAKEPLSGGALGKETGVSRHVVVQDIALLRTQGYPIVATARGYIINE | -0.212
45 | HMNPVVATTIILDGEIIKDNLAEANLSEEWLLEELKRQNFNDVKEVFYAEWLDGKQLFAYPYTK | -0.224
46 | HMTIRLKELRKQKGNTQAEVAKILGTNQSQYGKYENERTQLSLDNAKILSDYFGVSVPYLLGLDDNP | -0.0854
47 | HMLSSEQQQKLDSLSRKELEVAELVSHGATNKMIARTMNITERTVKAHLTAIFQKMNIPDRLSLAIFFRDL | -2.44
48 | HMTTAASIGRLVRDARKQRGLTQHELASLLSTSQSAIHRIESGNQNLSLEMINRIAQALESPLIVPGG | -0.163
49 | HMTEAIDVPNLVGQNYSDVKSNSSYKFNWDIINVYDSGKPEGEIIKQEPEAGSKKVKENAVITLTVN | 0.278
50 | HMGGRSARVRRAVLDAVVELLGEGGVRAVTIAEVAKRSGVNASSIYRRWRSIDALILDAAQDL | -1.81

Row | Sequence | soluble fraction (log2)
51 | HMSAERFDFRIGPELAGKRFDQALAEALPQFSRSRLSTWIKDGRATLNGATMRPKDSVHAGDTVVVNAE | 0.126
52 | HMDELVYVPNITGKTVEEARTELQKRDLGLNIAGHQFSDEFGKGRIISQDPAAGSRLKVNRSISVIVSSGQ | 0.206
53 | HMATGTVKWFNPNKGFGFIQQDDASKDVFVHSNELNGVYINEGDKVEFDVVETEKGLSAQNIKK | -0.0828
54 | HMGGWEEGVYVVREGDTLSDIVHDAVKGTEIHPDFILNAIVRVNPSAFVRGNPSWMLAGKKIK | -0.0469
55 | HMDRELVALVQKALSQLSEQQRRIVELHVMEGMKYLEIADLLQLSENTVRTHLKRAYKILRENH | -1.76
56 | HMRSREGVRWIIRERIMEELQERHHMDDGELLEMIDRSIGEMGQEIFLPLKERIWLRGSLFDSFR | -3.1
57 | HMFNVKAYEKAVKSYITKRKPLGEALDEEIMDELSVKFGIVDDALEDLFKQIQDAGISIVDKDGNPSPLAL | -0.619
58 | HMDDFSETLLQYIKEKGGHISLNDKTDAGVIYETFGVSKKTFKKAVGDLYKKRLIVLEDTGIRL | -0.0801
59 | HMKAKPTLLTPYEERLKGWLETDSRRPKRDRRTGLALFAKLQQEGFTGSYTRVTEYIRRWRDSGG | -3.01
60 | HMGLSENALAMLKQQETVLIRLIDGRGNQGALASINLIVSRILNLDIVDRTPEDLLRVIASEGEQND | -3.78
61 | HMTFAEADAQYEVIKQQYLAGALDEEQFDEQLHRLMVLDDGGLWWAKSRENGSWHYYDPDREDWIAATP | -0.355
62 | HMSEFSDRFRLLKDESGATLKELSEQLDITVPNLSYYMKGREPSYDILIKIADYFGVTTDWLIGRTDER | -0.547
63 | HMPKSVRQSFVYSPMYRDVEYLADFLRNNNKDDSSVSASGDKLVYYGTADEIARVKSVLKGVDV | -0.026
64 | HMQNESGLFTMSDLWEAGLMGSENASRKRAAVGAFLGIGFGNGKQFLKRLNHFGVTKEEWESALEQLGE | -0.684
65 | HMVAEPTYGRTTDVLNIRSGPSTDDERIGQLSRGAVVTILEEKDGWYRLQRGYISADYVTQISAEEASNS | -0.221
66 | HMRSISVEMDGKEYLIPTVSENGKVLSDDDAVKQFKKTGKHLDVFDSPEDATAYARQLHEDQESFYA | 0.142
67 | HMALSETIYRLRTEHGLSQGDLAAELDVSRQSISKWETGSSVPELDKLVAMSRLFGVSLDELVLGE | -0.63
68 | HMEARNDWAQQSRADAEFGGEKLDENLAVAKKAVEALASPELKTLLEQSGLGNHPEIIRLFYRAGRSLS | 0.132
69 | HMRHEDLSPAQKAAALVVAVGSENAAQVLRHLSEEEVEILAGEVARLGEVDPDVVDSVMREVYEQMMGH | -0.423
70 | HMTTKGGLVRDTVLNEFRDSEFTRREVELVLNGVASERTIRGALSEMVERGELTQVNFGISTRYRLNQ | -0.385
71 | HMAYQQITIKANVVNVRQGPGLSYDVMSQANKGETMNVISQKNNWYQVRLSGDKIGWVASWLVDNT | -1
72 | HMQKTPFEIMTIYKDQILEMLGKDLTATEISIVLKKKGEKVHPREIRKFQLQHYEEVQDMRKKWRE | -1.16
73 | HMSPEVEEISIDHLKAGMRILSDLRLPNGTLVAPKGSVVDAHFIKIVENYVISYFGNPFPDRIKVIM | -1.4
74 | HMGGSVYTVQKGDTLWSIAKEQLGSPLRYAEIYDLNKDVIEEAARGRGKKDSSNGHWLVVGTSLQIPEAT | 0.42
75 | HMNSNIIKTINDELSIRKGKYGPYIMYKTKKMKRPKFKSIGDNTPDEFLADKGSISEIILWIN | -0.444

— the domain aggregation screens of Martell et al. (2025)
